According to paper PMC11275989, “Molecular Basis for the Calcium-Dependent Activation of the Ribonuclease EndoU”:

Molecular target: T1, EndoU catalytic domain (human, UniProt P21128 135-410)
T1 sequence: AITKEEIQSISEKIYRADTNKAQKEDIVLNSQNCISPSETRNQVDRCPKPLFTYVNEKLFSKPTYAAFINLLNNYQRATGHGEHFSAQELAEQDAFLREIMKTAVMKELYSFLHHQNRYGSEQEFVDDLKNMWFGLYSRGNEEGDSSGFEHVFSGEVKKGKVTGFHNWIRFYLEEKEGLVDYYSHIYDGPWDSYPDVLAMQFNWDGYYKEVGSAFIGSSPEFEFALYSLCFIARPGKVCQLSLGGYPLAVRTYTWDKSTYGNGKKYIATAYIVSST
Experiment: NMR; Ca2+ (calcium-activated EndoU); NMR: 10 mM Tris pH 7, 50 mM NaCl, 1 mM TCEP, 10% D2O, 35 C; EndoU 350 uM (Fig. 4)
Settings: protein: recombinant; tags: GB1-His6 removed by TEV; residual N-terminal GGSEFA; single strand

| Binder | binding result |
| --- | --- |
| UUUUUU (XNA, 2'-F) [2'F (U)6 RNA] | binds |
| AAGUCC (XNA, 2'-F at all nucleotides (non-cleavable)) [2'-fluorinated RNA AAGUCC] | binds |
